Test results: patent US11733246B2, “Compositions, imaging, and therapeutic methods targeting folate receptor 1 (FOLR1)” (Indi Molecular, Inc., priority 2020, dated 2023)
Numbered stars: 1 amine (or outer) side, 2 acyl side, 3 side chain; on linkers, the order of the positions; unused ones are H or OH. Bridge positions count the residues as written; N and C are the ends. Square brackets hold non-standard residues; d marks the D form. Triazole bridges read from a SMILES are 1,4-linked. Ends that are not written are not given here. Peptide text beside a SMILES is read from it. * marks the point of attachment. DOTA = O=C(O)CN1CCN(CC(=O)O)CCN(CC(=O)*)CCN(CC(=O)O)CC1; Pteroyl = Nc1nc2ncc(CNc3ccc(C(=O)*)cc3)nc2c(=O)[nH]1; Butanoyl(4-(4-I-phenyl)) = O=C(CCCc1ccc(I)cc1)*; Lys(N3) = [N-]=[N+]=NCCCC[C@H](N)C(=O)O; γGlu = O=C(O)[C@H](CCC(=O)[*:2])N[*:1]; X3 = O=C(CO/N=C/c1ccc(F)cc1)*; AEEEA = NCCOCCOCCOCC(=O)O; Pra = C#CC[C@H](N)C(=O)O; X2 = NOCC(=O)*

Assays:
[1] = Plasma stability, mouse; conditions: Mu; for half-life at 2 μM: CD-1, mouse, pH 7.4, Plasma Stability (t 1/2)
Procedure: (§5) Plasma was thawed in a 37° C. water bath. Residual clots were removed via centrifugation at 4000 rpm for 5 minutes. The pH of the plasma was adjusted to 7.4 if required. Test articles were diluted to 100 μM by diluting a 1 mM working solution (in DMSO) with 45% methanol in water. To 98 μL of plasma was added 2 μL of the 100 μM solution, resulting in 2 μM final concentration of the test article. Samples were incubated at 37° C. in a water bath. At the indicated time points (0, 10, 30, 60, 120 minutes) 100 μL of 4% H3PO4 was added followed by 800 μL of stop solution (200 ng/mL tolbutamide and 200 ng/mL labetalol in 100% acetonitrile). The samples were centrifuged and the plasma protein-free supernatant (100 μL) was subjected to LC-MS/MS analysis.

[2] = Plasma stability, human; conditions: Hu; for half-life at 2 μM: pH 7.4, Plasma Stability (t 1/2)
Procedure: as §5

[3] = system: OVCAR3 (FOLR1+) tumor bearing NSG mice; test: in vivo; conditions: mouse
Procedure: Female, 7-week-old NSG mice were housed under pathogen-free conditions. Water and food were provided ad libitum. To create mice with FOLR1+ ovarian xenograft tumors, mice were injected subcutaneously with OVCAR3 cells (1×10^7 cells per mouse) resuspended in 50% Matrigel in PBS into the shoulder region. Tumor growth was monitored by caliper measurements. OVCAR3 is a human ovarian adenocarcinoma known to over-express FOLR1.
^68Ga PET imaging was used to study in vivo biodistribution of heterobiligands in non-tumor bearing (healthy) mice and OVCAR3 tumor bearing mice. 100-200 μCi of [^68Ga]DOTA-labeled heterobiligand was administered intravenously (i.v.) via the tail vein of each mouse. Dynamic PET imaging was performed from 0-1 h, followed by acquisition of static PET images at 2 h and 4 h post-injection. CT scans were acquired for anatomical reference. Imaging was performed on an Inveon microPET/CT small animal scanner. The PET signal was quantitated by three-dimensional ROI analysis and represented as percent injected dose (% ID) vs. time ([…]) for major organs including tumor, liver, heart, lung, bladder, and kidney.
Evaluation of a folate-hshta (SEQ ID NO:6) Nterm heterobiligand bearing both an albumin binder and DOTA chelator in PET was a priority, given that DOTA can accommodate both ^68Ga for imaging and ^177Lu for radiotherapy. A 200 μCi dose of ^68Ga-labeled folate-hshta-PEG3-Lys(MPBA)-Lys(DOTA) (SEQ ID NO:6) (compound #2809) was injected i.v. via tail vein in an NSG mouse bearing s.c. human OVCAR3 (FOLR1+) tumor. ^68Ga PET/CT imaging scans were performed at 0-1 h (dynamic), 2 h (static), and 4 h (static). […] The time-course biodistribution of ^68Ga-labeled folate-hshta-PEG3-Lys(MPBA)-Lys(DOTA) (SEQ ID NO:6) (compound #2809) was calculated to quantify the uptake in major organs including the tumor (FIG. 17). […] Larger tumors (490 mm^3) were also evaluated with the ^68Ga-chelated PET probe.
Images were captured for compound #1307 at the time points 5 min, 10 min, 15 min, 30 min, 1 h, 2 h, and 4 h. PET/CT images were taken following the injection of 4 female NSG mice with ^68Ga-chelated compound #2809. […] Images for mouse 4 are shown in FIG. 23 (Compounds #1307 and #2809) and FIG. 24 (Compound #1307).
Biodistribution was initially evaluated by PET imaging, as the time frame for a significant portion of clearance is roughly similar to the time frame of PET imaging experiments. Indi ^68Ga-7327 was injected via the tail vein into OVCAR3 (FOLR+) tumor implanted female NSG mice once the tumor size reached 200 mm^3, and microPET/CT scans were acquired at 5 min, 10 min, 15 min, 30 min, 1 h, 2 h, and 4 h post-injection. PET images were corrected for CT-based photon attenuation, detector normalization and radioisotope decay and converted to units of percent injected dose per cc (% ID/cc).

[4] = biological target: human recombinant NEP (Homo sapiens, UniProt P08473); assay type: biochemical
Procedure: In order to test the susceptibility of GFK and MVK linkers to NEP-mediated cleavage, the peptide (Folate-hshta-Lys(MPBA)-Gly-Phe-Lys(DOTA) (SEQ ID NO:6)) was incubated with human recombinant NEP and analyzed the solution for the presence of cleaved adducts. MALDI was utilized to monitor the cleavage of a PCC heterobiligand that contains a NEP protease recognizable sequence (G-F-K). The PCC concentration was constant and the NEP concentration was titrated down from 10 nM to 1 nM, 0.1 nM, 0.01 nM, and no NEP. The NEP-mediated cleaved adduct was identified by mass. 10 μM PCC containing the GFK linker was combined with varying amounts of NEP. […] Below 0.1 nM no cleavage was observed. • Folate-hshta-Lys(MPBA)-Gly-Phe-Lys(DOTA) (SEQ ID NO:6) • Molecular weight 2231.42
The NEP-mediated cleavage was also monitored by HPLC. In agreement with the MALDI spectra, the HPLC chromatograms show depletion of the parent brush-border heterobiligand (retention time 17.1 minutes), dose-dependent on the amount of NEP spiked into the sample (10 nM, 1 nM, 0.1 nM, 0.01 nM, and no NEP). An appearance of a new peak (retention time 16.5 minutes) in concert with the depletion of the starting material is presumed to be the cleaved folate-containing peptide.
In order to test the specificity of NEP, a non-cleavable linker (PEG3) was also assayed.
To reduce the radioactive dose to the kidney, Indi ^177Lu-7327 was constructed to incorporate a GFK linker that is susceptible to cleavage by enzymes found predominately in the kidney's brush border. These enzymes cleave off the radionuclide-chelator complex, which is quickly eliminated by the kidney for excretion in the urine. The zinc metalloprotease neprilysin (NEP) is expressed with high abundance in the kidney. […] To confirm NEP-mediated cleavage of the GFK linker in Indi 7327, the peptide was incubated with recombinant human NEP at 37° C. for 1 h and analyzed by matrix-assisted laser desorption/ionization mass spectrometry (MALDI-MS) for the evolution of cleaved adducts (FIG. 42). […] The expected cleaved adduct (mass: 1283.16 m/z) appears in the samples containing 10, 1.0, and 0.1 nM NEP. […] Below 0.1 nM NEP, no cleavage was observed. In addition to confirming the selectivity of NEP for the GFK linker, it is also important to note that the remaining portions of the Indi 7327 were impervious to the enzyme.

[5] = Plasma protein binding (equilibrium dialysis), mouse; assay type: in vitro ADME, CD-1 mouse
Procedure: (§1) HTD 96 a/b regenerated cellulose membrane strips with mass cutoff of 12-14 kDa were soaked in ultra-pure water at room temperature for 1 hour. Each swelled membrane was then soaked in 20:80 ethanol:water for 20 minutes.
(§2) Just prior to the experiment, the membranes were re-soaked in ultra-pure water. Plasma was prepared by thawing under cold water. The plasma was centrifuged to remove any clots and pH was adjusted to 7.0-8.0. Test articles and control compounds were diluted to 2 μM. The dialysis device was loaded by transferring 150 μL of the test article (in triplicate) to the donor side. The dialysis device was placed in a humidified incubator at 37° C. with 5% CO2 in a shaking platform that rotated slowly for 4 hours. After incubation, 50 μL of the supernatant was taken from both sides and analyzed by LC-MS/MS.
(§3) To optimize the albumin binding potential of the heterobiligand, a plasma protein binding (PPB) experiment was performed. This experiment measured the amount of test article bound and free after equilibrating with plasma. Compound #6305 (folate-hshta-Lys(MPBA)-Gly-Phe-Lys(DOTA) (SEQ ID NO:6)), which contains the MPBA albumin binder, was 96.26% bound to mouse plasma and 98.34% bound to human plasma. […] In mouse and human plasmas 99.6% and 99.5% was bound, respectively.

[6] = Plasma protein binding (equilibrium dialysis), human; assay type: in vitro ADME
Procedure: as §1, §2, §3

[7] = system: OVCAR3 (FOLR+) cells; test: Fluorescence microscopy / live cell imaging of dye-labeled heterobiligand; assay type: cell-based, human; conditions: DyLight 650 label, OVCAR3 vs PC3
Text: To further understand intracellular trafficking of the Nterm heterobiligand, these dye-labeled compounds were imaged by fluorescence microscopy. The cells were counterstained with BioTracker 490, which stains membranes, and Rab5a+, an endosomal stain. […] Low levels of DyLight650 was detected within PC-3 (FOLR1−) cells. Taken together, internalization of the heterobiligand appears to be receptor driven and selective for FOLR1 (+) cells.
(§4) Nonclinical studies were first conducted with Folate-hshta-PEG10-PEG10-K(Biotin), where Folate-hshta is the targeting heterobiligand, PEG10 is a deca(ethylene glycol) linker, and K(Biotin) is the detection label. […] Cross reactivity with the murine folate receptor was also observed. […] In the merged image, purple puncta were observed indicating co-localization of internalized heterobiligand with early endosomes (Rab5a+ vesicles) in OVCAR3 cells.

[8] = system: OVCAR3 cells; test: Cell internalization assay (acid wash, flow cytometry); assay type: cell-based, human; conditions: OVCAR3 cell line
Procedure: FIG. 10 is a diagram of an assay for assessing cell internalization FOLR1 heterobiligands.
The folate-hshta (SEQ ID NO:6) Nterm heterobiligand was also evaluated in cell penetration imaging assays (FIG. 10). OVCAR3 and PC-3 cells were incubated with the test article at 37° C. for 1 hour. Flow cytometry analysis of the resulting treated cells indicated strong binding to FOLR1 (+) cells. To understand the proportion bound to the surface but not internalized, the cells were briefly washed with acid to liberate the non-internalized peptide.
as §4

Chain of human recombinant NEP (P08473 whole entry): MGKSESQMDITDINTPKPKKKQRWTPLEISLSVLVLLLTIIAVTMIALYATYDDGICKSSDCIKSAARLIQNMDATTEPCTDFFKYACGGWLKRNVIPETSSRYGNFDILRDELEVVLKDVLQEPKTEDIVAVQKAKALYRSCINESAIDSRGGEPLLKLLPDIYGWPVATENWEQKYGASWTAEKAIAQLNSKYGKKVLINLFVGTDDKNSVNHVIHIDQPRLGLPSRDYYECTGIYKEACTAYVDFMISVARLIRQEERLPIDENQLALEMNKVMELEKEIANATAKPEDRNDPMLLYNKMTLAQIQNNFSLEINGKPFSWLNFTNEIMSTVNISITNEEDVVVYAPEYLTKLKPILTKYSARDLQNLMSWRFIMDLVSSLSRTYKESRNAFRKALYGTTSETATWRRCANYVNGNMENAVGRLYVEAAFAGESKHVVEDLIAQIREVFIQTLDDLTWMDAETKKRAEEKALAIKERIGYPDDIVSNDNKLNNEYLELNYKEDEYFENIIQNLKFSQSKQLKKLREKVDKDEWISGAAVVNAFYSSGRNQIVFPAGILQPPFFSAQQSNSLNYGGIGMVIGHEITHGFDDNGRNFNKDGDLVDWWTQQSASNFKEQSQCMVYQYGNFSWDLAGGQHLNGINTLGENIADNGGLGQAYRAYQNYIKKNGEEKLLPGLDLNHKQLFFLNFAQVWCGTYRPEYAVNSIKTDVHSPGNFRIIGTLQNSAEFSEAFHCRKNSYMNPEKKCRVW

CC(C)[N+](C)(CCOC(=O)C1c2ccccc2Oc2ccccc21)C(C)C [Propantheline bromide, reference compound] showed a half-life at 2 μM ([1]; 2 μM, 37° C.) of 0.747 h and a half-life at 2 μM ([2]; 2 μM, 37° C.) of 0.193 h.
In the case of C[C@H](O)[C@H]1NC(=O)[C@@H](Cc2c[nH]cn2)NC(=O)[C@@H](CO)NC(=O)[C@@H](Cc2c[nH]cn2)NC(=O)[C@@H](NC(=O)CC[C@H](NC(=O)c2ccc(NCc3cnc4nc(N)[nH]c(=O)c4n3)cc2)C(=O)O)Cc2cn(nn2)CCCC[C@@H](C(=O)N[C@@H](CCCCNC(=O)CCCc2ccc(I)cc2)C(=O)NCC(=O)N[C@@H](Cc2ccccc2)C(=O)N[C@@H](CCCCNC(=O)CN2CCN(CC(=O)O)CCN(CC(=O)O)CCN(CC(=O)O)CC2)C(=O)O)NC(=O)[C@@H](C)NC1=O [^68Ga-chelated compound #1307, metal not drawn] ({Pteroyl-γGlu}-[Pra][dH][dS][dH][dT][dA][Lys(N3)]K(Butanoyl(4-(4-I-phenyl)))GFK(DOTA)-OH; triazole 1-7), the “heart exposure compared to compound #2809” value [3] is reported as “less than two-fold increase”, the kidney absorption [3] is reported as “very low kidney absorption” and the “kidney dose compared to compound #2809” value [3] is reported as “seven-fold reduction”. For the same compound, the “lung accumulation compared to compound #2809” value [3] was “greater than three-fold increase”.
For C[C@H](O)[C@H]1NC(=O)[C@@H](Cc2cnc[nH]2)NC(=O)[C@@H](CO)NC(=O)[C@@H](Cc2cnc[nH]2)NC(=O)[C@@H](NC(=O)CC[C@H](NC(=O)c2ccc(NCc3cnc4nc(N)[nH]c(=O)c4n3)cc2)C(=O)O)Cc2cn(nn2)CCCC[C@@H](C(=O)NCC(=O)N[C@@H](Cc2ccccc2)C(=O)N[C@@H](CCCCNC(=O)CON)C(=O)O)NC(=O)[C@@H](C)NC1=O [compound 3303, Fol-hshta-Gly-Phe-Lys(AO)] ({Pteroyl-γGlu}-[Pra][dH][dS][dH][dT][dA][Lys(N3)]GFK(X2)-OH; triazole 1-7), the “in vitro Assay Data (NEP assay)” value [4] was “Cleavage of -G-F-K-”, the half-life at 2 μM ([1]; AO construct marked (FB)) was > 116 h and the half-life at 2 μM ([2]; AO construct marked (FB)) was > 116 h.
In the case of C[C@H](O)[C@H]1NC(=O)[C@@H](Cc2c[nH]cn2)NC(=O)[C@@H](CO)NC(=O)[C@@H](Cc2c[nH]cn2)NC(=O)[C@@H](NC(=O)CC[C@H](NC(=O)c2ccc(NCc3cnc4nc(N)[nH]c(=O)c4n3)cc2)C(=O)O)Cc2cn(nn2)CCCC[C@@H](C(=O)NCCOCCOCCOCC(=O)N[C@@H](CCCCNC(=O)CO/N=C/c2ccc(F)cc2)C(N)=O)NC(=O)[C@@H](C)NC1=O [compound #2, Fol-hshta-PEG3-Lys(FB)] ({Pteroyl-γGlu}-[Pra][dH][dS][dH][dT][dA][Lys(N3)][AEEEA]K(X3)-NH2; triazole 1-7), the half-life ([1]; mouse, Plasma Stability (t 1/2), 2 μM, 37° C.) is reported as > 4.82 h, the half-life ([2]; Plasma Stability (t 1/2), 2 μM, 37° C.) is reported as > 4.82 h and the recovery [5] is reported as 115%. The fraction unbound ([5]; mouse, plasma) was 0.798, the recovery [6] was 85% and the fraction unbound ([6]; human, plasma) was 0.57.
In the case of “heterobiligand labeled with DyLight 650: folate-hshta Nterm heterobiligand labeled with the dye DyLight 650 ([dH][dS][dH][dT][dA]; not fully specified (N-terminus); printed as hshta; also: labeled with DyLight 650, place not given here, heterobiligand)”, the “internalization / intracellular localization” value [7] is reported as “internalization with clear preference for early endosomes”, the “internalization / intracellular localization” value ([7]; listed as DyLight650-labeled peptide-folate heterobiligand) is reported as “Selective internalization into OVCAR3 (FOLR+) cells” and the “internalized fraction in acid wash (pH 3.0) assay” value [8] is reported as “high percentage”.
